This passage reports Kd results from publication PMC10379010, “Short Peptides of Innate Immunity Protein Tag7 (PGLYRP1) Selectively Induce Inhibition or Activation of Tumor Cell Death via TNF Receptor” (International Journal of Molecular Sciences, 2023).

In the assay the target is Hsp70 (recombinant) (UniProt P0DMV8). Description: MST; sTNFR1 or Hsp70 labeled with Alexa Fluor 633 or 488 (200 nM), 20 min in the dark at room temperature with 16 concentrations of each compound; Monolith NT 115, IR laser power 10%; apparent Kd; triplicate.

RSNYVLKG [peptide 17.1B]: the Kd stood at 3.15 nM.
Under HRDVQRT [peptide 17.1A] stands 222 nM.

B1: Tag7 protein (PGLYRP1) (natural protein)
chain: QETEDPACCSPIVPRNEWKALASECAQHLSLPLRYVVVSHTAGSSCNTPASCQQQARNVQHYHMKTLGWCDVGYNFLIGEDGLVYEGRGWNFTGAHSGHLWNPMSIGISFMGNYMDRVPTPQAIRAAQGLLACGVAQGALRSNYVLKGHRDVQRTLSPGNQLYHLIQNWPHYRSP
Regarding B1, the Kd was found to be 1.73 nM.
